Source: patent publication US20220362394A1 (SUTRO BIOPHARMA, published 2022)
Read-outs that look alike come from different tables or passages of the source.

Legend:
human BCMA on cells [1] = molecular target: T1, human BCMA on cells (human, UniProt Q02223 1-184); assay: cell-based or functional assay
T1 sequence: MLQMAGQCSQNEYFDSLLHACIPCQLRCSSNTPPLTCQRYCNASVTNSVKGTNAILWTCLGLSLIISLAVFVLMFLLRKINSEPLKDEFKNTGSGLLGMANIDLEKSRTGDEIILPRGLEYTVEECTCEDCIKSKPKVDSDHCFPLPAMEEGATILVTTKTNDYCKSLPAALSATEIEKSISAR

cynomolgus BCMA on cells = cynomolgus BCMA on cells (cynomolgus monkey, UniProt Q02223 1-184 (human entry)); assay: FACS, 293T-cBCMA cells
Procedure: (§2) Cells were collected, washed and resuspended in FACS buffer (DPBS buffer with 1% bovine serum albumin and 0.05% v/v sodium azide). […] Ab binding was detected with phycoerythrin-conjugated anti-human Fc Ab (Jackson ImmunoResearch, West Grove, Pa.) for 1 hour on ice. Cells were analyzed using a BD FACS Canto system.

mouse BCMA on cells = molecular target: T2, mouse BCMA on cells (mouse, UniProt O88472 1-185); assay: FACS, 293T-mBCMA cells; NB: No binding
T2 construct: HEK293T cells transfected with plasmid encoding mouse BCMA (Invivogen)
T2 sequence: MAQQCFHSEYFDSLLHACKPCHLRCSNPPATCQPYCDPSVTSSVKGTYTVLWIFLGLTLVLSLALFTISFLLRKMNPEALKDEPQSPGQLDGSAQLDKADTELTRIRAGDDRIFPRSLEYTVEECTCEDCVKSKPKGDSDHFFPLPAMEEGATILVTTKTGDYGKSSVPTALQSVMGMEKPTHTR
Procedure: Cells were plated in 96-well plates (100 k per well) and incubated with antibodies (titrated half-log serial dilutions from 200 nM) for 1 hour on ice. […] Cells were analyzed using a BD LSR-Fortessa X-20 flow cytometry system. FACS data were analyzed using Flowjo software to calculate geometric fluorescence intensity (gMFI) (n=3 replicates) and data (geo. Mean MFI+/−SEM versus log nM Ab) were generated using GraphPad Prism software.

human BCMA on cells [2] = molecular target: T1, human BCMA on cells; assay: FACS, MM.1S cells
Procedure: (§1) Cells were analyzed using a BD FACS Canto system. Fluorescence-activated cell sorting (FACS) data were analyzed using Flowjo software to calculate mean fluorescence intensity (MFI) (n=3 replicates) and data (mean MFI+/−standard error of the mean [SEM] versus nM of the antibody) was generated using the GraphPad Prism software.

human BCMA on cells [3] = molecular target: T1, human BCMA on cells; assay: cell-based or functional assay; remark: listed apart in the source
human BAFF-R on cells = molecular target: T3, human BAFF-R on cells (human, UniProt Q96RJ3 1-184); assay: flow cytometry on 293T cells stably expressing human BAFF-R, detected with PE-conjugated anti-human Fc antibody
T3 construct: whole, on cells; also called TNFRSF13C
Procedure: (§3) Cells were plated in 96-well plates (100K per well) and incubated with Abs. […] ADC binding was detected with phycoerythrin-conjugated anti-human Fc Ab (Jackson ImmunoResearch, West Grove, Pa.) for 1 hour on ice. Cells were analyzed using a BD FACS Canto system. FACS data were analyzed using Flowjo software to generate cell binding histograms.

human BCMA on cells [4] = molecular target: T1, human BCMA on cells; assay: FACS, NCI-H929 cells
Procedure: as §1

human BCMA on cells [5] = molecular target: T1, human BCMA on cells; assay: FACS, ARP-1 cells
Procedure: as §1

human BCMA on cells [6] = molecular target: T1, human BCMA on cells; assay: cell-based or functional assay; remark: listed apart in the source
human BCMA on cells [7] = molecular target: T1, human BCMA on cells; assay: FACS, OPM-2 cells
Procedure: as §1

human TACI on cells = molecular target: T4, human TACI on cells (human, UniProt O14836 1-293); assay: flow cytometry on 293T cells stably expressing human TACI, detected with PE-conjugated anti-human Fc antibody
T4 construct: whole, on cells; also called TNFRSF13B
T4 sequence (looked up): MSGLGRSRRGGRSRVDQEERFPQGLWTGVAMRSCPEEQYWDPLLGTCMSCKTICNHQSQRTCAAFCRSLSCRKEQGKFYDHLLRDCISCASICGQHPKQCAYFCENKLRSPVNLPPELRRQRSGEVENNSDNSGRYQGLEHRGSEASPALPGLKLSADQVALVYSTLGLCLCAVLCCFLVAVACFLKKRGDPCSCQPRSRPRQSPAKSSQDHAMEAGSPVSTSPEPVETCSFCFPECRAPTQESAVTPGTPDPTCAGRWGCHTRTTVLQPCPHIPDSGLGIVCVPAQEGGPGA
Procedure: as §3

human BCMA on cells [8] = molecular target: T1, human BCMA on cells; assay: FACS, U266B1 cells
Procedure: as §1

human BCMA on cells [9] = molecular target: T1, human BCMA on cells; assay: FACS, RPMI-8226 cells
Procedure: as §1

human BCMA on cells [10] = molecular target: T1, human BCMA on cells; assay: FACS, 293T-hBCMA cells
Procedure: as §2

Chain of cynomolgus BCMA on cells (Q02223 other isoform, or with tags, fused parts or gaps): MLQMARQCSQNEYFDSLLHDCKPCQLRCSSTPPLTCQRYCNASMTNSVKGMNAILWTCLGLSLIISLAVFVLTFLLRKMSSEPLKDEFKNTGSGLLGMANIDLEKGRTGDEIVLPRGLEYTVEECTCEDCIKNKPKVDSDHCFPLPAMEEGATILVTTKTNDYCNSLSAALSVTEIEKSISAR

B1: Conjugate 4 (antibody, human IgG1, kappa, V domains shown)
VH: EVQLVESGGGLVQPGGSLRLSCAASGFNISAPGIHWVRQAPGKGLEWVGFINPAGGYTDYADSVKGRFTISADTSKNTAYLQMNSLRAEDTAVYYCARDYIRQYWTYVLDYWGQGTLVTVSS
VL: not shown
modifications: p-azidomethyl-phenylalanine in place of HC-Y180 and HC-F404 (EU numbering), each bonded to a non-cleavable maytansine linker-warhead (Conjugate M); DAR4
notes: also called Conjugate 4 ADC; SP8919 ADC
cell killing EC50, NCI-H929, Experiment 1 (human BCMA on cells [1]): 0.8 nM
cell killing EC50, NCI-H929, Experiment 2 (human BCMA on cells [1]): 0.8 nM
cell killing EC50, OPM2, Experiment 1 (human BCMA on cells [1]): 1.7 nM
cell killing EC50, OPM2, Experiment 2 (human BCMA on cells [1]): 1.8 nM
cell killing EC50, U266B1, Experiment 1 (human BCMA on cells [1]): 0.8 nM
cell killing EC50, U266B1, Experiment 2 (human BCMA on cells [1]): 0.9 nM
Kd (cynomolgus BCMA on cells): 2.7 nM
binding result (mouse BCMA on cells): no binding (tested: 200 nM)
Kd (human BCMA on cells [2]): 1.6 nM
cell killing EC50, NCI-H929, Experiment 1 (human BCMA on cells [3]): 0.7 nM
cell killing EC50, NCI-H929, Experiment 2 (human BCMA on cells [3]): 0.8 nM
cell killing EC50, OPM2, Experiment 1 (human BCMA on cells [3]): 1.7 nM
cell killing EC50, OPM2, Experiment 2 (human BCMA on cells [3]): 2 nM
cell killing EC50, U266B1, Experiment 1 (human BCMA on cells [3]): 0.7 nM
cell killing EC50, U266B1, Experiment 2 (human BCMA on cells [3]): 0.8 nM
binding result (human BAFF-R on cells): no binding (tested: 67 nM)
Kd (human BCMA on cells [4]): 2.4 nM
Kd (human BCMA on cells [5]): 1.2 nM
cell killing EC50, ARP-1, no competing reagent (human BCMA on cells [6]): 0.7 nM
cell killing EC50, NCI-H929, no competing reagent (human BCMA on cells [6]): 0.9 nM
cell killing EC50, OPM2, no competing reagent (human BCMA on cells [6]): 3.3 nM
cell killing EC50, U266B1, no competing reagent (human BCMA on cells [6]): 0.9 nM
Kd (human BCMA on cells [7]): 2.3 nM
binding result (human TACI on cells): no binding (tested: 67 nM)
Kd (human BCMA on cells [8]): 3.9 nM
Kd (human BCMA on cells [9]): 1.8 nM

B2: 2265-F02 Y180/F404 (unconjugated Ab) (antibody, human IgG1, kappa, V domains shown)
VH: EVQLVESGGGLVQPGGSLRLSCAASGFNISAPGIHWVRQAPGKGLEWVGFINPAGGYTDYADSVKGRFTISADTSKNTAYLQMNSLRAEDTAVYYCARDYIRQYWTYVLDYWGQGTLVTVSS
VL: not shown
modifications: p-azidomethyl-phenylalanine in place of HC-Y180 and HC-F404 (EU numbering), unconjugated
notes: also called unconjugated anti-BCMA antibody, 2265-F02; unconjugated antibody version of Conjugate 4
Kd (cynomolgus BCMA on cells): 2.8 nM
binding result (mouse BCMA on cells): no binding (tested: 200 nM)
Kd (human BCMA on cells [2]): 0.9 nM
Kd (human BCMA on cells [4]): 0.9 nM
Kd (human BCMA on cells [5]): 1 nM
Kd (human BCMA on cells [7]): 1.3 nM
Kd (human BCMA on cells [10]): 2.1 nM
Kd (human BCMA on cells [9]): 1.3 nM
